Results: patent US9963506B2, “Human-mouse chimeric anti-CD147 antibody with non-fucosylated glycosylation” (Fourth Military Medical University, priority 2015, dated 2018)

Target: T1, CD147 (Homo sapiens, UniProt P35613)
T1 construct: FFPE tissue sections from a selected panel of human cancer tissue arrays; tissue Chaoying Biotechnology Co., LTD, China; host or cells: human cancer tissue arrays (lung, ovarian, stomach, esophagus, breast, cervical, liver, colon cancer), FFPE
T1 sequence (P35613 22-269 isoform P35613-2 limits assumed): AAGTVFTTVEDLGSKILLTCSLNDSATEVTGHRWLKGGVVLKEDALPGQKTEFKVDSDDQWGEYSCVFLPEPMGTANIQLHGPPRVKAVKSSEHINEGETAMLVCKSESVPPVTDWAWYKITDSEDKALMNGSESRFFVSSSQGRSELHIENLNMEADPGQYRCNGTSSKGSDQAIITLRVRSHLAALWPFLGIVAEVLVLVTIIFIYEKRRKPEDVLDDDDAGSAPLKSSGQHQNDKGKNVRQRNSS
Test: Immunohistochemical detection of CD147 in human cancer tissue arrays (tissue cross reactivity)
Type: binding
Procedure: To test the specificity of Metuzumab (HcHAb18), tissue cross reactivity of Metuzumab was evaluated in FFPE tissue sections from a selected panel of human cancer tissue arrays (Chaoying Biotechnology Co., LTD, China.). Slides were microwaved for 10 min in 10 mM sodium citrated (pH 6.0), cooled for 30 min at 25° C. After incubating for 10 min in 3% H2O2 to block endogenous peroxidase, and blocking for 1 hr in 10% goat serum, slides were incubated overnight in a humidity chamber with biotinylated Metuzumab (30 μg/ml). Binding was visualized with streptavidin-conjugated peroxidase (ZsBio, China) and DAB detection system (ZsBio, China). Sections were analyzed using a bright-field microscope. The staining results were evaluated by 2 experienced pathologist in a blinded manner and classified into four categories: of 0 (no visible staining), 1+ (light brown), 2+ (mid-brown), and 3+ (dark brown), respectively, with the same intensity covering more than 75% of the staining area.

## Metuzumab: human-mouse chimeric anti-CD147 IgG1, heavy chain SEQ ID NO: 4, light chain SEQ ID NO: 3, Mannose-5 glycoform lacking fucose and xylose
Colon cancer
  Positive rate: 82.00%
  Sensitivity response rate: 82.00%
  Specificity: 84.00%
  Tumor tissues specifically bound (positive/total): 41/50
Colon cancer, number 50
  Staining level 0 (no visible staining), number of tissues: 9
  Staining level 1+ (light brown), number of tissues: 8
  Staining level 2+ (mid-brown), number of tissues: 26
  Staining level 3+ (dark brown), number of tissues: 7
Esophagus cancer
  Positive rate: 93.75%
  Sensitivity response rate: 93.75%
  Specificity: 81.25%
  Tumor tissues specifically bound (positive/total): 30/32
Esophagus cancer, number 32
  Staining level 0 (no visible staining), number of tissues: 2
  Staining level 1+ (light brown), number of tissues: 6
  Staining level 2+ (mid-brown), number of tissues: 13
  Staining level 3+ (dark brown), number of tissues: 11
Liver cancer
  Positive rate: 85.00%
  Sensitivity response rate: 85.00%
  Specificity: 75.00%
  Tumor tissues specifically bound (positive/total): 17/20
Liver cancer, number 20
  Staining level 0 (no visible staining), number of tissues: 3
  Staining level 1+ (light brown), number of tissues: 11
  Staining level 2+ (mid-brown), number of tissues: 6
Lung cancer
  Positive rate: 88.24%
  Sensitivity response rate: 88.24%
  Specificity: 91.67%
  Tumor tissues specifically bound (positive/total): 60/68
Lung cancer, number 68
  Staining level 0 (no visible staining), number of tissues: 8
  Staining level 1+ (light brown), number of tissues: 5
  Staining level 2+ (mid-brown), number of tissues: 23
  Staining level 3+ (dark brown), number of tissues: 32
Mammary cancer
  Positive rate: 90.00%
  Sensitivity response rate: 90.00%
  Specificity: 77.50%
Mammary cancer, number 40
  Staining level 0 (no visible staining), number of tissues: 4
  Staining level 1+ (light brown), number of tissues: 6
  Staining level 2+ (mid-brown), number of tissues: 11
  Staining level 3+ (dark brown), number of tissues: 19
Mammary tissue
  Positive rate: 22.50%
Mammary tissue, number 40
  Staining level 0 (no visible staining), number of tissues: 31
  Staining level 1+ (light brown), number of tissues: 5
  Staining level 2+ (mid-brown), number of tissues: 2
  Staining level 3+ (dark brown), number of tissues: 2
Normal cervix uteri
  Positive rate: 0%
Normal cervix uteri, number 4
  Staining level 0 (no visible staining), number of tissues: 4
  Staining level 1+ (light brown), number of tissues: 0
  Staining level 2+ (mid-brown), number of tissues: 0
  Staining level 3+ (dark brown), number of tissues: 0
Normal colon
  Positive rate: 16.00%
Normal colon, number 50
  Staining level 0 (no visible staining), number of tissues: 42
  Staining level 1+ (light brown), number of tissues: 5
  Staining level 2+ (mid-brown), number of tissues: 2
  Staining level 3+ (dark brown), number of tissues: 1
Normal esophagus
  Positive rate: 18.75%
Normal esophagus, number 16
  Staining level 0 (no visible staining), number of tissues: 13
  Staining level 1+ (light brown), number of tissues: 3
  Staining level 2+ (mid-brown), number of tissues: 0
  Staining level 3+ (dark brown), number of tissues: 0
Normal liver
  Positive rate: 25.00%
Normal liver, number 4
  Staining level 0 (no visible staining), number of tissues: 3
  Staining level 1+ (light brown), number of tissues: 0
  Staining level 2+ (mid-brown), number of tissues: 1
  Staining level 3+ (dark brown), number of tissues: 0
Normal lung
  Positive rate: 8.33%
Normal lung, number 12
  Staining level 0 (no visible staining), number of tissues: 10
  Staining level 1+ (light brown), number of tissues: 2
  Staining level 2+ (mid-brown), number of tissues: 0
  Staining level 3+ (dark brown), number of tissues: 0
Normal ovary
  Positive rate: 0%
Normal ovary, number 12
  Staining level 0 (no visible staining), number of tissues: 12
  Staining level 1+ (light brown), number of tissues: 0
  Staining level 2+ (mid-brown), number of tissues: 0
  Staining level 3+ (dark brown), number of tissues: 0
Ovary cancer
  Positive rate: 75%
  Sensitivity response rate: 75.00%
  Specificity: 100%
Ovary cancer, number 12
  Staining level 0 (no visible staining), number of tissues: 3
  Staining level 1+ (light brown), number of tissues: 2
  Staining level 2+ (mid-brown), number of tissues: 3
  Staining level 3+ (dark brown), number of tissues: 4
Breast cancer
  Tumor tissues specifically bound (positive/total): 36/40
Cervical cancer
  Positive rate: 85.00%
  Sensitivity response rate: 85.00%
  Specificity: 100%
  Tumor tissues specifically bound (positive/total): 17/20
Cervical cancer, number 20
  Staining level 0 (no visible staining), number of tissues: 3
  Staining level 1+ (light brown), number of tissues: 2
  Staining level 2+ (mid-brown), number of tissues: 5
  Staining level 3+ (dark brown), number of tissues: 10
Gastric cancer
  Positive rate: 78.26%
  Sensitivity response rate: 78.26%
  Specificity: 80.95%
Gastric cancer, number 23
  Staining level 0 (no visible staining), number of tissues: 5
  Staining level 1+ (light brown), number of tissues: 1
  Staining level 2+ (mid-brown), number of tissues: 7
  Staining level 3+ (dark brown), number of tissues: 10
Normal stomach
  Positive rate: 19.05%
Normal stomach, number 21
  Staining level 0 (no visible staining), number of tissues: 17
  Staining level 1+ (light brown), number of tissues: 3
  Staining level 2+ (mid-brown), number of tissues: 1
  Staining level 3+ (dark brown), number of tissues: 0
Ovarian cancer
  Tumor tissues specifically bound (positive/total): 9/12
Stomach cancer
  Tumor tissues specifically bound (positive/total): 18/23
